Assay results reported in patent publication US20240343773A1 (AMIDEBIO, published 2024).
Ends that are not written are not given here.

Molecular target: insulin receptor (IR) (UniProt P06213 28-1382)
Assay: method not stated; in the absence of glucose

Binder | Kd
SEQ ID NO: 5 (ligand, ends and bridges not checked; cysteine pairing not given here, Single chain insulin analog (B chain-C'-A chain)) FVDQHLCGSHLVEALYLVCGERGFFYTPKTYDGKGIVEQCCTSICSLYQLENYCG | 4.51 nM
SEQ ID NO: 7 (ligand, ends and bridges not checked; cysteine pairing not given here, Single chain insulin analog (B chain-C'-A chain)) FVGQHLCGSHLVEALYLVCGERGFFYTPKTYDGKGIVEQCCTSICSLYQLENYCG | 1.21 nM
